Consider 15 molecules from article PMC11077437, “Scrutiny of chimeric antigen receptor activation by the extracellular domain: experience with single domain antibodies targeting multiple myeloma cells highlights the need for case-by-case optimization” (Frontiers in Immunology, 2024).

Test [1] deals with T1, recombinant human CS1 protein (CS1-(his)C) (Homo sapiens, UniProt Q9NQ25).
T1 construct: CS1 (SLAMF7, CD319), human, the extracellular portion; also called huCS1; SLAMF7; source: HEK293-E 253 cells, transiently transfected, purified from the supernatant (IMAC, SEC) by U Protein Express
The test can be described thus: SPR; Biacore T200; recombinant CS1 amine-coupled on a CM5 chip; VHH 100 nM to 3.125 nM in HBS pH 7.4, 25°C; association 180 s, dissociation 300 s; fit '1:1 binding with drift and RI2'; n=1. The following applies: both partners purified. (In general: Surface plasmon resonance follows binding to a sensor surface in real time, without labels.)

Test [2] deals with T2, human CS1 on CS1pos OPM2 multiple myeloma cells (Homo sapiens, OPM2 myeloma cells, UniProt Q9NQ25). The test can be described thus: cell-based or functional assay.
Test [3] has as its target T2, human CS1 on CS1pos OPM2 multiple …. The test can be described thus: flow cytometry on cells; purified VHH at 200 nM, 1 h at 4°C, on CS1pos OPM2 cells; detected by mouse anti-His IgG1 mAb and APC anti-mouse IgG1 mAb; ΔMFI against the non-targeting control VHH R3B23 at 200 nM; n=1. The following applies: one partner purified. For orientation: In flow cytometry, cells or beads pass a laser one at a time.

B1: VHH-63 (VHH)
VHH: DVQLVESGGGLVQPGGSLRLSCTVSGLTFSDYDMSWVRQAPGKGPEWVSFINTGGGSTYYDDSVKGRFTISRDNAKNTLYLQMDSLKPEDTALYYCARGDPYSDPKYWGQGTQVTVSS
notes: 99mTc-labelled on the His tag for the in vivo experiment; source: E. coli WK6 periplasm, purified (IMAC, SEC); not shown: His6, C-terminal, kept
Turning to B1, in test [1], the Kd (commonly a measure of binding affinity in units of concentration) was found to be 9.8 nM; the koff (as a rule, the rate constant with which the complex falls apart) was determined as 0.0019 s⁻¹; the kon (commonly a measure of how fast the partners come together) turned out to be 190000 M⁻¹ s⁻¹. In addition, the “tumor uptake of the 99mTc-labelled VHH in subcutaneous CS1pos OPM2 tumors in mice, ex vivo at 90 min p.i. (n=3)” value (“tumor uptake … at 90 min p.i. (n=3)” below) in test [2] is 1.03 % IA/g. The “ΔMFI [VHH] = 200 nM” value in test [3] was determined as 3.37.

B2: VHH-29 (VHH)
VHH: DVQLVESGGGLVQPGGSLRLSCAASGFTFSSYAMSWVRQAPGKGPEWVSHINTGGGSTYYDDSVKGRFTISRDNAKNTLYLQMNSLKPEDTALYYCARGDPFDEYRYWGQGTQVTVSS
notes: as for B1
In the case of B2, in test [1], the dissociation constant Kd is 1.6 nM, the off-rate constant (koff) was 0.00024 s⁻¹ and the kon was 150000 M⁻¹ s⁻¹. Further, in test [2], the “tumor uptake … at 90 min p.i. (n=3)” value came to 4.75 % IA/g. Also, in test [3], the “ΔMFI [VHH] = 200 nM” value was 29.4.

B3: VHH-71 (VHH)
VHH: DVQLVESGGGMVQPGGSLRLSCAASGFTFSSYDMSWVRQAPGKGPEWVSFINTGGGSTYYDDSVKGRFTISRDNAKNTLYLQMNSLKPEDTALYYCARGDPYSDPKYWGQGTQVTVSS
notes: as for B1
For B3, in test [1], the Kd was determined as 4.29 nM, the koff was 0.0016 s⁻¹ and the association rate constant (kon) was 372000 M⁻¹ s⁻¹. Moreover, the “tumor uptake … at 90 min p.i. (n=3)” value in test [2] worked out at 4.02 % IA/g. The “ΔMFI [VHH] = 200 nM” value in test [3] came to 11.2.

B4: VHH-51 (VHH)
VHH: DVQLVESGGGMVQPGGSLRLSCAASGFTFSSYDMSWVRLAPGKGPEWVSYINTGGGSTYYDDSVKGRFTISRDNAKNTLYLQMNSLKAEDTALYYCARGDPFQRPKYWGQGTQVTVSS
notes: source: E. coli WK6 periplasm, purified (IMAC, SEC); not shown: His6, C-terminal, kept
With B4, in test [1], the Kd came to 0.6 nM, the koff stood at 0.00029 s⁻¹ and the kon was found to be 490000 M⁻¹ s⁻¹. In test [3], the “ΔMFI [VHH] = 200 nM” value was 14.3.

B5: VHH-53 (VHH)
VHH: DVQLVESGGGMVQPGGSLRLSCAASGFTFSSYDMSWVRQAPGKGPEWVSYINTGGGSTYYDDSVKGRFTISRDNAKNTLYLQMNSLKAEDTALYYCARGDPFQRPKYWGQGTQVTVSS
notes: as for B1
On to B5, for which, in test [1], the dissociation constant Kd is 0.81 nM, the koff was 0.0003 s⁻¹ and the association rate constant (kon) was 370000 M⁻¹ s⁻¹. Also, the “tumor uptake … at 90 min p.i. (n=3)” value in test [2] was found to be 7.5 % IA/g. Also, the “ΔMFI [VHH] = 200 nM” value in test [3] amounted to 22.1.

B6: VHH-57 (VHH)
VHH: DVQLVESGGGMVQPGGSLRLSCAASGFTFSSYGMSWVRQAPGKGPEWVSHINTGGGSTYYADSVKGRFTISRDNAKNTLYLQMNSLKPEDTALYYCARGDPWGHDPSWGQGTQVTVSS
notes: as for B1
On to B6, for which, in test [1], the Kd worked out at 24.7 nM, the koff is 0.0085 s⁻¹ and the kon worked out at 350000 M⁻¹ s⁻¹. For the same molecule, the “tumor uptake … at 90 min p.i. (n=3)” value in test [2] came out at 0.85 % IA/g. The “ΔMFI [VHH] = 200 nM” value in test [3] was 4.8.

B7: VHH-56 (Table 1, the row between 53 and 57) (VHH)
VHH: DVQLVESGGGLVQPGGSLRLSCAASGFTFSSYGMSWVRQAPGKGPEWVSHINTGGGSTYYADSVKGRFTISRDNAKNTLYLQMNSLKPEDTALYYCARGDPWGHDPSWGQGTQVTVSS
notes: this is the second; source: E. coli WK6 periplasm, purified (IMAC, SEC); not shown: His6, C-terminal, kept
For B7, in test [1], the Kd was determined as 36.1 nM, the koff is 0.01 s⁻¹ and the kon was 279000 M⁻¹ s⁻¹. Moreover, the “ΔMFI [VHH] = 200 nM” value in test [3] was 4.72.

B8: VHH-65 (VHH)
VHH: DVQLVESGGGMVQSGGSLRLSCAASGFTFSSYDMSWVRQAPGKGPEWVSYINTGGGSTYYDDSVKGRFTISRDNAKNTLYLQMNSLKAEDTALYYCARGDPFQRPKYWGQGTQVTVSS
notes: as for B4
As for B8, in test [1], the Kd turned out to be 2.32 nM, the dissociation rate constant (koff) amounted to 0.000979 s⁻¹ and the kon stood at 423000 M⁻¹ s⁻¹. Moreover, the “ΔMFI [VHH] = 200 nM” value in test [3] was 11.4.

B9: VHH-28 (VHH)
VHH: DVQLVESGGGLVQPGGSLRLSCAASGFTLDDYAMSWVRQAPGKGPEWVSYINTGGGSTYYDDSVKGRFTISRDNAKNTLYLQMNSLKAEDTALYYCARGDPFQRPKYWGQGTQVTVSS
notes: as for B4
In the case of B9, in test [1], the equilibrium dissociation constant (Kd) amounted to 1.2 nM, the off-rate constant (koff) came to 0.00025 s⁻¹ and the kon was found to be 210000 M⁻¹ s⁻¹. In addition, the “ΔMFI [VHH] = 200 nM” value in test [3] was determined as 6.58.

B10: VHH-22 (VHH)
VHH: DVQLVESGGGLVQPGGSLRLSCAASGFTFSSYDMSWVRQAPGKGPEWVSHITTGGGSTHYDDSVKGRFTISRDNAKNTLYLQMNSLKPEDTALYYCARGDPFDSSRDWGQGTQVTVSS
notes: as for B4
Consider B10, for which, in test [1], the Kd was found to be 4 nM, the off-rate constant (koff) is 0.00048 s⁻¹ and the kon was 120000 M⁻¹ s⁻¹. Moreover, the “ΔMFI [VHH] = 200 nM” value in test [3] amounted to 7.29.

B11: VHH-24 (VHH)
VHH: DVQLVESGGGMVQPGGSLRLSCAASGFTFSSYDMSWVRQAPGKGPEWVSHITTGGGSTHYDDSVKGRFTISRDNAKNTLYLQMNSLKPEDTALYYCARGDPFDSSRDWGQGTQVTVSS
notes: as for B4
For B11, in test [1], the Kd turned out to be 4.7 nM, the off-rate constant (koff) turned out to be 0.00047 s⁻¹ and the on-rate (kon) stood at 100000 M⁻¹ s⁻¹. Further, the “ΔMFI [VHH] = 200 nM” value in test [3] came out at 20.6.

B12: VHH-61 (VHH)
VHH: DVQLVESGGGMVQPGGSLRLSCAASGFTFSSYGMSWVRQAPGKGPEWVSYINVGGGSTYYDDSVKGRFTISRDNAKNTLYLQMNSLKPEDTALYYCARGDPYSDHPQRTWGQGTQVTVSS
notes: as for B1
B12: in test [1], the Kd was determined as 0.33 nM, the koff was found to be 8.1e-05 s⁻¹ and the association rate constant (kon) was 250000 M⁻¹ s⁻¹. Besides, the “tumor uptake … at 90 min p.i. (n=3)” value in test [2] came to 6.57 % IA/g. The “ΔMFI [VHH] = 200 nM” value in test [3] came out at 10.3.

B13: VHH-73 (VHH)
VHH: DVQLVESGGGMVQSGGSLRLSCAASGFTFSSYDMSWVRQAPGKGPEWVSTINTGGSSTYYDDSVKGRFTISRDNAKNTLYLQMNSLKPEDTALYYCARGGPYSRDYWGQGTQVTVSS
notes: as for B1
Consider B13, for which, in test [1], the Kd was 35.8 nM, the dissociation rate constant (koff) was found to be 0.00254 s⁻¹ and the on-rate constant (kon) is 74400 M⁻¹ s⁻¹. Also, the “tumor uptake … at 90 min p.i. (n=3)” value in test [2] stood at 0.52 % IA/g. Besides, the “ΔMFI [VHH] = 200 nM” value in test [3] came out at 1.35.

B14: VHH-6 (VHH)
VHH: DVQLVESGGGLVQAGGSLRLSCAASGRTFEDYFMAWFRQIPGKEREFVAAVGWNTGRGYYTDSVKGRFTISRDSAKNTLYLQMDSLKPEDTAVYYCNAPLQSLDRRLPGPYWGQGTQVTVSS
notes: as for B1
As to B14, in test [1], the Kd worked out at 3.8 nM, the koff came to 0.00079 s⁻¹ and the kon was found to be 210000 M⁻¹ s⁻¹. Further, in test [2], the “tumor uptake … at 90 min p.i. (n=3)” value was determined as 6.29 % IA/g. For the same molecule, the “ΔMFI [VHH] = 200 nM” value in test [3] worked out at 101.

B15: VHH-17 (VHH)
VHH: DVQLVESGGGLVQPGDSLRLSCTASGFTFSNYPMSWVRQAPGKGPEWISHINTGGGSTYYADSVKGRFTISRDNAKNTLYLQMNSLKPEDTALYYCARGDPFKYSGSYLRGQGTQVTVSS
notes: as for B1
On to B15, for which the “tumor uptake … at 90 min p.i. (n=3)” value in test [2] was determined as 1.05 % IA/g. Moreover, the “ΔMFI [VHH] = 200 nM” value in test [3] was determined as 13.
